Reference: publication PMC4718636, “Recombinant hTRBP and hPACT Modulate hAgo2-Catalyzed siRNA-Mediated Target RNA Cleavage In Vitro” (PLoS ONE, 2016)

Biological target: T1, GST-hAgo2 (human Argonaute2) (human, UniProt Q9UKV8 1-859)
T1 construct: human Argonaute2 (hAgo2); In the cleavage assays hAgo2 stood with siRNA (hAgo2/siRNA complex); also called wt-hAgo2; hArgonaute2; source: expressed and purified as previously described [27]
Test: pull-down; pulldown assays shown only in Figure I of the S1 Supporting Information File; format not given
Conditions: both partners purified

T1 sequence (Q9UKV8 whole entry): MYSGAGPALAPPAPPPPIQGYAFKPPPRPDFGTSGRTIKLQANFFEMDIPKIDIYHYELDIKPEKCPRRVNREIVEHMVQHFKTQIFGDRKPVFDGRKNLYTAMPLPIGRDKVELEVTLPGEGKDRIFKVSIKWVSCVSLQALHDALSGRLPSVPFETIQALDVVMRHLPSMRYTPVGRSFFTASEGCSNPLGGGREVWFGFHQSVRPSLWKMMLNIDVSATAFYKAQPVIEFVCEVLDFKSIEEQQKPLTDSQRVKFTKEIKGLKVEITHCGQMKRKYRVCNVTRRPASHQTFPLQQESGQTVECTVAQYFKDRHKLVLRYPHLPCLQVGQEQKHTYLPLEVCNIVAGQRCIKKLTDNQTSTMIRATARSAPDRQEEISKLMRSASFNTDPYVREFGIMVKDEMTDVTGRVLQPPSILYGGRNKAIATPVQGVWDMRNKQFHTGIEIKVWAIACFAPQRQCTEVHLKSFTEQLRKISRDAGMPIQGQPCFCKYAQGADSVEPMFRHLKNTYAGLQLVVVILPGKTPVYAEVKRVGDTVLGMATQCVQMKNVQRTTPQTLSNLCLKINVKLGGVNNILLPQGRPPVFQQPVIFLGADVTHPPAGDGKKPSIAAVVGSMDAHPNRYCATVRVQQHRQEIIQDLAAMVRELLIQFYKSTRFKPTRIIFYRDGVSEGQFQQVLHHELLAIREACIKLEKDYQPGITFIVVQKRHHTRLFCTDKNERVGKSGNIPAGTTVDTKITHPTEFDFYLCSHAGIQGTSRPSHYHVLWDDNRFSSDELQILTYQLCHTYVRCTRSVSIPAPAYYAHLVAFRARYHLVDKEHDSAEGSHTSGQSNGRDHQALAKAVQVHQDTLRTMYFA

- binding result: binds
B1: His-hPACT (human protein activator of protein kinase R), purified under native conditions (natural protein, UniProt O75569 1-313, looked up)
chain: MSQSRHRAEAPPLEREDSGTFSLGKMITAKPGKTPIQVLHEYGMKTKNIPVYECERSDVQIHVPTFTFRVTVGDITCTGEGTSKKLAKHRAAEAAINILKANASICFAVPDPLMPDPSKQPKNQLNPIGSLQELAIHHGWRLPEYTLSQEGGPAHKREYTTICRLESFMETGKGASKKQAKRNAAEKFLAKFSNISPENHISLTNVVGHSLGCTWHSLRNSPGEKINLLKRSLLSIPNTDYIQLLSEIAKEQGFNITYLDIDELSANGQYQCLAELSTSPITVCHGSGISCGNAQSDAAHNALQYLKIIAERK
notes: No removal of the His tag is described; also called hPACT^nat; source: E. coli BL21 (DE3), purified under native conditions (Talon Superflow)
